Results published in paper PMC9816786.

Target: Human PCSK9 (full length), 6xHis-tagged, purified (human) (UniProt Q8NBP7)
Test: BLI; biotinylated PCSK9 or biotinylated CHRD immobilised (0.2 μg/ml), CAP1 in solution, pH 7.5, association and dissociation 600 s

Human CAP1 (cyclase associated protein 1), 6xHis-tagged, purified, sequence (Q01518 whole entry): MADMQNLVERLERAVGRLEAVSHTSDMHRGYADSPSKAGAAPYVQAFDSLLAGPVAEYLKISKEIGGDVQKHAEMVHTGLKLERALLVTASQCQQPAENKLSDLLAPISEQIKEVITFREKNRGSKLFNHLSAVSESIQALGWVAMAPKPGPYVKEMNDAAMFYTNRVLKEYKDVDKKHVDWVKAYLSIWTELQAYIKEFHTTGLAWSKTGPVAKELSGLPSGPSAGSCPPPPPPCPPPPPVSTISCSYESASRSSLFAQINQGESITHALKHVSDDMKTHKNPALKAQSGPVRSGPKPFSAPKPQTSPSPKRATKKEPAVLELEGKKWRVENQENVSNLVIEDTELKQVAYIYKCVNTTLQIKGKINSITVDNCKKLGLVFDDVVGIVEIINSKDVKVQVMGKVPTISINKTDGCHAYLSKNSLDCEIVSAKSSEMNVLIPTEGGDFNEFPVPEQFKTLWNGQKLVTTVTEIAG

Kd: 1360 nM
koff: 0.00094 s⁻¹
kon: 690 M⁻¹ s⁻¹
Substance: Human CAP1 (cyclase associated protein 1), 6xHis-tagged, purified (from UniProt Q01518 1-475) (natural protein)
